# Source: patent publication US20210330762A1
# B1: α2-antiplasmin (α2-AP), purified from human serum (protein)
# chain: NQEQVSPLTLLKLGNQEPGGQTALKSPPGVCSRDPTPEQTHRLARAMMAFTADLFSLVAQTSTCPNLILSPLSVALALSHLALGAQNHTLQRLQQVLHAGSGPCLPHLLSRLCQDLGPGAFRLAARMYLQKGFPIKEDFLEQSEQLFGAKPVSLTGKQEDDLANINQWVKEATEGKIQEFLSGLPEDTVLLLLNAIHFQGFWRNKFDPSLTQRDSFHLDEQFTVPVEMMQARTYPLRWFLLEQPEIQVAHFPFKNNMSFVVLVPTHFEWNVSQVLANLSWDTLHPPLVWERPTKVRLPKLYLKHQMDLVATLSQLGLQELFQAPDLRGISEQSLVVSGVQHQSTLELSEVGVEAAAATSIAMSRMSLSSFSVNRPFLFFIFEDTTGLPLFVGSVRNPNPSAPRELKEQQDSPGNKDFLQSLKGFPRGDKLFGPDLKLVPPMEEDYPQFGSPK
# Columns and labels:
# Assay in all cases: cell-based or functional assay
# [1] = target: µPlm mutant F587M (human) (UniProt P00747)
# [2] = target: µPlm mutant F587D (human) (UniProt P00747)
# [3] = target: wild-type microplasmin (WT µPlm), refolded from E. coli µPlg and activated with urokinase (human) (UniProt P00747)
# [4] = target: µPlm mutant F587N (human) (UniProt P00747)
# [5] = target: µPlm mutant F587A (human) (UniProt P00747)
# [6] = target: µPlm mutant F587V (human) (UniProt P00747)
# [7] = target: µPlm mutant F587R (human) (UniProt P00747)
# [8] = target: µPlm mutant F587Q (human) (UniProt P00747)
# [9] = target: µPlm mutant F587I (human) (UniProt P00747)
binder,measurement,setting,value
B1,IC50 (nM) of α2-AP inhibition of µPlm amidolytic activity (S-2403),[1],77.6 nM
same,IC50 Fold Increase,[1],2 fold
same,IC50 (nM) of α2-AP inhibition of µPlm amidolytic activity (S-2403),[2],106 nM
same,IC50 Fold Increase,[2],2.8 fold
same,IC50 (nM) of α2-AP inhibition of µPlm amidolytic activity (S-2403),[3],37.9 nM
same,IC50 Fold Increase,[3],1 fold
same,IC50 (nM) of α2-AP inhibition of µPlm amidolytic activity (S-2403),[4],105 nM
same,IC50 Fold Increase,[4],2.8 fold
same,IC50 (nM) of α2-AP inhibition of µPlm amidolytic activity (S-2403),[5],150 nM
same,IC50 Fold Increase,[5],4 fold
same,activity remaining at 2 times concentration of α2-AP (% activity remaining),[5],50
same,IC50 (nM) of α2-AP inhibition of µPlm amidolytic activity (S-2403),[6],65.2 nM
same,IC50 Fold Increase,[6],1.7 fold
same,IC50 (nM) of α2-AP inhibition of µPlm amidolytic activity (S-2403),[7],164 nM
same,IC50 Fold Increase,[7],4.3 fold
same,IC50 (nM) of α2-AP inhibition of µPlm amidolytic activity (S-2403),[8],63.2 nM
same,IC50 Fold Increase,[8],1.7 fold
same,IC50 (nM) of α2-AP inhibition of µPlm amidolytic activity (S-2403),[9],46.4 nM
same,IC50 Fold Increase,[9],1.2 fold
